T1: B7H4 on T47D cells (human, UniProt Q7Z7D3 25-282)
T1 sequence (looked up): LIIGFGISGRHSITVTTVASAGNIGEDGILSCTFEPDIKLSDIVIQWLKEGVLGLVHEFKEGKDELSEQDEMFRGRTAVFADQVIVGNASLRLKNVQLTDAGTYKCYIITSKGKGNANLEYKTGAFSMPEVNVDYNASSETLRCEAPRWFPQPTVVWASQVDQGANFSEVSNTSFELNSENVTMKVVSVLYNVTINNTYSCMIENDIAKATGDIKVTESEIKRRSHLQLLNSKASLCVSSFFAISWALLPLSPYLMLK

T2: CD73 on MCF-7 cells (human, UniProt P21589 27-549)
T2 sequence (looked up): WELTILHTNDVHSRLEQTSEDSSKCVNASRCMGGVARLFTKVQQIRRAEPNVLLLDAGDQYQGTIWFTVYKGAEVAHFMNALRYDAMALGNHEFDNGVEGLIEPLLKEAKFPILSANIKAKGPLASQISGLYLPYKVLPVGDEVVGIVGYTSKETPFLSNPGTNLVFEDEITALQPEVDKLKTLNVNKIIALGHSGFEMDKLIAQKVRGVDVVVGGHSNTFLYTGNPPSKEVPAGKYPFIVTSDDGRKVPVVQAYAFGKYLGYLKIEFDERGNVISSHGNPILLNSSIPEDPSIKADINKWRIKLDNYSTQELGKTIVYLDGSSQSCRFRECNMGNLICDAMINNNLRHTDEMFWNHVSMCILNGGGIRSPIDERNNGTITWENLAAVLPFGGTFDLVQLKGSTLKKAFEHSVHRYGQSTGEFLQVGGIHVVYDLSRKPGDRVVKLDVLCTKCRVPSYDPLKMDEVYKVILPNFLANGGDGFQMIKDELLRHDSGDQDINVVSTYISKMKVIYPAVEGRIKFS


Assays:
B7H4 on T47D cells = target: T1, B7H4 on T47D cells; test: cell-based or functional assay
CD73 on MCF-7 cells = target: T2, CD73 on MCF-7 cells; test: cell-based or functional assay

EC50 (ng/ml), ADCC reporter bioassay, Palbociclib Isethionate-treated T47D cells, pH 6.0 (B7H4 on T47D cells) [ng/ml]	EC50 (ng/ml), ADCC reporter bioassay, Palbociclib Isethionate-treated T47D cells, pH 7.4 (B7H4 on T47D cells) [ng/ml]	EC50 (ng/ml), ADCC reporter bioassay, untreated T47D cells, pH 6.0 (B7H4 on T47D cells) [ng/ml]	EC50 (ng/ml), ADCC reporter bioassay, untreated T47D cells, pH 7.4 (B7H4 on T47D cells) [ng/ml]	pH 7.4/pH 6.0 ratio of ADCC EC50, Palbociclib Isethionate-treated T47D cells (B7H4 on T47D cells) [ratio]	pH 7.4/pH 6.0 ratio of ADCC EC50, untreated T47D cells (B7H4 on T47D cells) [ratio]	EC50 (ng/mL), ADCC reporter bioassay, Palbociclib Isethionate-treated MCF-7 cells, pH6.0 (CD73 on MCF-7 cells) [ng/mL]	EC50 (ng/mL), ADCC reporter bioassay, Palbociclib Isethionate-treated MCF-7 cells, pH7.4 (CD73 on MCF-7 cells) [ng/mL]	EC50 (ng/mL), ADCC reporter bioassay, untreated MCF-7 cells, pH6.0 (CD73 on MCF-7 cells) [ng/mL]	EC50 (ng/mL), ADCC reporter bioassay, untreated MCF-7 cells, pH7.4 (CD73 on MCF-7 cells) [ng/mL]	pH7.4/pH6.0 ratio of ADCC EC50, Palbociclib Isethionate-treated MCF-7 cells (CD73 on MCF-7 cells) [ratio]	pH7.4/pH6.0 ratio of ADCC EC50, untreated MCF-7 cells (CD73 on MCF-7 cells) [ratio]	Binder
2.97	10.2	7.55	11.7	3.41	1.54							BA-091-00-2E2 (antibody, V domains shown) VH: QVQLQQSDAELVKPGASVKISCKVSGYTFTDRTIHWMKQRPEQGLEWIGSIYPRDGSTKYNEKFKDKATLTADKSSSTAYMQLNSLTSEDSAVYFCARSVGYAFDYWGQGTTLTVSS VL: DIVLTQSPASLAVSLGQRATISCRVSEGIDNYGFTFIHWYQQKPGQPPKLLIYRASNLQSGIPARFSGSGSRTDFTLTIYPVETDDVATYYCQQSDKDPFTFGSGTKLEIK
27	149	98.1	429	5.53	4.37							BA-091-02-04-04 (antibody, V domains shown) VH: EVQLVQSGAEVKKPGATVKISCKVSGYTFTDRTIHWIRQSPSRGLEWLGSIYPRDGSTKYNEKFKDRVTITADKSTSTAYMELSSLRSEDTAVYYCARSVGYADDYWGQGTLVTVSS VL: DVVMTQSPLSLPVTLGQPASISCRVSEGIDNYGFTFIHWYQQKPGKAPKLLIYRASNLQSGIPARFSGSGSGTEFTLTISSLQSEDFAVYYCQQSDKDPFTFGQGTKVEIK
						1.26	1.16	2.17	1.07	0.92	0.49	BAP147-WT (antibody, V domains shown) VH: EVQLLESGGGLVQPGGSLRLSCAASGFTFSSYAYSWVRQAPGKGLEWVSAISGSGGRTYYADSVKGRFTISRDNSKNTLYLQMNSLRAEDTAVYYCARLGYGRVDEWGRGTLVTVSS VL: QSVLTQPPSASGTPGQRVTISCSGSLSNIGRNPVNWYQQLPGTAPKLLIYLDNLRLSGVPDRFSGSKSGTSASLAISGLQSEDEADYYCATWDDSHPGWTFGGGTKLTVL
						55.9	545	173	100	9.74	0.577	BAP147-HC-Y101E (antibody, V domains shown) VH: EVQLLESGGGLVQPGGSLRLSCAASGFTFSSYAYSWVRQAPGKGLEWVSAISGSGGRTYYADSVKGRFTISRDNSKNTLYLQMNSLRAEDTAVYYCARLGEGRVDEWGRGTLVTVSS VL: QSVLTQPPSASGTPGQRVTISCSGSLSNIGRNPVNWYQQLPGTAPKLLIYLDNLRLSGVPDRFSGSKSGTSASLAISGLQSEDEADYYCATWDDSHPGWTFGGGTKLTVL
						28.9	134	44.2	106	4.62	2.39	BAP147-LC-L051D (antibody, V domains shown) VH: EVQLLESGGGLVQPGGSLRLSCAASGFTFSSYAYSWVRQAPGKGLEWVSAISGSGGRTYYADSVKGRFTISRDNSKNTLYLQMNSLRAEDTAVYYCARLGYGRVDEWGRGTLVTVSS VL: QSVLTQPPSASGTPGQRVTISCSGSLSNIGRNPVNWYQQLPGTAPKLLIYDDNLRLSGVPDRFSGSKSGTSASLAISGLQSEDEADYYCATWDDSHPGWTFGGGTKLTVL

Source: patent US20240044046A1 (BIOATLA, published 2024)
